The supplement of paper PMC10567573

B1: CCND1 (parent)
chain: PEAEENKQIIRKHAQTFVALCATD
B2: WDFY2 (parent)
chain: FWNFKQMWDSKKIGLRQHHCRKCG

Variants of: B1
Experiment: protein stability index of a GFP-peptide fusion (GPS, HEK-293T) (PSI 1-6); higher = more stable
Conditions: c terminus: a fixed tail appended
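Further: lentivirally expressed fusions sorted by FACS into six bins by GFP to DsRed ratio, PSI derived from sequencing read proportions per bin multiplied by bin number.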

Row | Variant | protein stability index
1 | A14R | 1.85
2 | A14I | 2.29
3 | A14P | 2.64
4 | A14F | 2.79
5 | A14Y | 2.44
6 | A14C | 2.72
7 | A14K | 2.38
8 | A14H | 2.62
9 | A19C | 3.3
10 | A19W | 3.06
11 | A19V | 4.04
12 | A19P | 4.92
13 | A19G | 2.91
14 | A19M | 2.55
15 | A19E | 2.49
16 | A19S | 2.89
17 | A19I | 2.85
18 | A19L | 2.59
19 | A19Q | 2.5
20 | A19Y | 3.64
21 | A19F | 3.08
22 | A19K | 3.54
23 | K12Q | 3.9
24 | K12A | 3.83

Row | Variant | protein stability index
25 | K12M | 2.73
26 | K12L | 2.77
27 | K12H | 3.47
28 | K12G | 3.65
29 | K12C | 2.76
30 | K12D | 3.66
31 | K12F | 2.51
32 | K12I | 2.39
33 | K12S | 2.29
34 | K12T | 3.06
35 | K12V | 3.13
36 | V18K | 5.09
37 | V18Q | 4.29
38 | V18R | 3.87
39 | V18M | 4.35
40 | V18E | 5.09
41 | V18Y | 3.75
42 | V18A | 3.77
43 | V18F | 4.28
44 | V18L | 4.49
45 | V18G | 4.55
46 | L20I | 3.33
47 | L20S | 4.43
48 | L20H | 3.21

Row | Variant | protein stability index
49 | L20D | 4.62
50 | L20F | 4.21
51 | L20N | 3.84
52 | L20C | 3.82
53 | L20E | 4.8
54 | L20Q | 2.85
55 | L20W | 4.15
56 | E2V | 2.8
57 | E2P | 2.83
58 | E2C | 2.13
59 | E2A | 2.54
60 | E2D | 2.75
61 | E2R | 1.87
62 | E2I | 2.27
63 | E2G | 2.92
64 | C21H | 4.37
65 | C21K | 5.07
66 | C21I | 1.98
67 | C21N | 5.27
68 | C21V | 2.24
69 | C21E | 4.9
70 | C21Y | 2.96
71 | C21M | 3.28
72 | C21D | 5.22

Row | Variant | protein stability index
73 | C21L | 1.66
74 | N6S | 2.12
75 | N6I | 2.26
76 | N6G | 2.35
77 | N6M | 2.39
78 | N6L | 1.88
79 | N6K | 2.38
80 | N6C | 1.93
81 | N6V | 1.85
82 | N6T | 2
83 | P1I | 2.36
84 | P1W | 3.02
85 | P1F | 2.44
86 | P1V | 2.66
87 | P1N | 2.52
88 | P1C | 1.97
89 | P1E | 3.45
90 | P1R | 2.59
91 | P1K | 2.07
92 | P1G | 2.78
93 | P1M | 2.68
94 | P1H | 3.19
95 | E4F | 1.92
96 | E4R | 2.33

Row | Variant | protein stability index
97 | E4N | 2.36
98 | E4M | 2.23
99 | E4V | 2.38
100 | E4D | 2.64
101 | E4I | 2.2
102 | E4Y | 2.08
103 | E4L | 2.37
104 | E4C | 3.62
105 | E4G | 2.42
106 | F17D | 5.61
107 | F17Q | 4.99
108 | F17W | 2.11
109 | F17A | 4.99
110 | F17V | 4.33
111 | F17Y | 3.27
112 | F17E | 5.24
113 | F17K | 5.34
114 | F17S | 4.67
115 | F17C | 4.84
116 | H13V | 3.02
117 | H13K | 2.02
118 | H13T | 3.07
119 | H13D | 4.02
120 | H13E | 3.7

Row | Variant | protein stability index
121 | H13Q | 3.4
122 | H13N | 2.53
123 | H13S | 2.54
124 | H13G | 3.84
125 | H13W | 2.25
126 | H13C | 2.65
127 | H13P | 3.17
128 | H13A | 3.11
129 | H13M | 2.89
130 | H13Y | 2.59
131 | T23M | 2.94
132 | T23Q | 2.54
133 | T23H | 2.64
134 | T23A | 2.87
135 | T23D | 3.22
136 | T23K | 2.92
137 | T23L | 2.35
138 | T23P | 3.07
139 | T23C | 2.64
140 | T23W | 2.63
141 | T23I | 2.38
142 | T23N | 2.94
143 | T23E | 2.21
144 | T23G | 2.64

Row | Variant | protein stability index
145 | T23S | 2.48
146 | T16K | 4.7
147 | T16R | 4.25
148 | T16P | 4.62
149 | T16Y | 3.58
150 | T16E | 5.27
151 | T16V | 3.85
152 | T16A | 4.71
153 | T16S | 3.2
154 | T16H | 4.35
155 | T16N | 4.61
156 | T16I | 3.35
157 | E5G | 2.47
158 | E5P | 2.33
159 | E5M | 2.99
160 | E5A | 2.05
161 | E5Y | 2.21
162 | E5V | 2.55
163 | E5S | 1.79
164 | E5F | 2.12
165 | E5W | 2.04
166 | E5T | 1.69
167 | E5D | 2.93
168 | E5R | 1.93

Row | Variant | protein stability index
169 | Q15S | 3.52
170 | Q15E | 3.63
171 | Q15Y | 2.01
172 | Q15V | 2.84
173 | Q15R | 2.32
174 | Q15P | 3.48
175 | Q15W | 2.16
176 | Q15K | 2.04
177 | Q15F | 2.07
178 | Q15M | 2.59
179 | Q15D | 3.66
180 | A3K | 2.8
181 | A3F | 2.71
182 | A3I | 2.93
183 | A3G | 2.8
184 | A3D | 3.27
185 | A3T | 2.15
186 | A3E | 3.02
187 | A3R | 3.26
188 | A3P | 2.43
189 | A3Q | 2.86
190 | A3Y | 2.81
191 | A3N | 3.15
192 | I9R | 2.17

Row | Variant | protein stability index
193 | I9V | 3.04
194 | I9W | 2.73
195 | I9N | 3.56
196 | I9E | 3.89
197 | I9H | 3.58
198 | I9Q | 2.81
199 | I9F | 2.86
200 | I9T | 2.18
201 | D24I | 2.15
202 | D24C | 2.71
203 | D24V | 2.54
204 | D24R | 2.7
205 | D24A | 3.27
206 | D24S | 3.9
207 | D24Q | 3.8
208 | D24W | 2.39
209 | D24G | 2.85
210 | D24E | 2.33
211 | D24L | 2.79
212 | D24K | 3.84
213 | I10F | 2.48
214 | I10E | 3.64
215 | I10R | 3.19
216 | I10H | 3.5

Row | Variant | protein stability index
217 | I10M | 3.5
218 | I10V | 3.39
219 | I10K | 2.92
220 | I10D | 3.14
221 | I10S | 2.53
222 | I10A | 2.79
223 | I10L | 3.48
224 | I10N | 3.04
225 | I10T | 3.04
226 | I10W | 3.22
227 | Q8D | 3.54
228 | Q8A | 2.77
229 | Q8F | 2.24
230 | Q8W | 2.05
231 | Q8T | 1.7
232 | Q8Y | 2.55
233 | Q8C | 2.24
234 | Q8P | 1.95
235 | Q8R | 3.07
236 | Q8E | 3.48
237 | Q8V | 2.07
238 | R11G | 3.16
239 | R11P | 3.28
240 | R11Q | 3.61

Row | Variant | protein stability index
241 | R11N | 3.59
242 | R11M | 2.71
243 | R11K | 2.9
244 | A22Q | 2.91
245 | A22E | 2.96
246 | A22S | 3.19
247 | A22T | 2.87
248 | A22V | 2.52
249 | A22G | 3.37
250 | A22R | 3.16
251 | A22Y | 3.02
252 | K7E | 3.84
253 | K7F | 2.71
254 | K7H | 3.36
255 | K7L | 2.95
256 | K7P | 3.19
257 | K7C | 2.92
258 | K7N | 3.78
259 | K7G | 3.26
260 | K7Y | 2.62
261 | K7T | 2.64

Variants of: B2
Experiment: as above
Conditions: c terminus: a fixed tail appended

Row | Variant | protein stability index
262 | W2G | 1.8
263 | W2Y | 2.25
264 | W2A | 1.86
265 | W2H | 2.32
266 | W2S | 1.42
267 | W2V | 3.04
268 | W2D | 2.78
269 | W2K | 2.04
270 | W2T | 2.12
271 | W2P | 2.58
272 | W2R | 2.61
273 | W2N | 2.63
274 | W2M | 2.39
275 | W2I | 2.23
276 | W2F | 1.61
277 | W2L | 1.93
278 | W2C | 2.19
279 | W2E | 3.29
280 | W2Q | 1.19
281 | N3A | 1.22
282 | N3H | 1.77
283 | N3R | 1.42
284 | N3D | 2.05
285 | N3T | 1.8
286 | N3G | 2.28

Row | Variant | protein stability index
287 | N3M | 1.35
288 | N3C | 2.08
289 | N3K | 1.7
290 | N3Y | 1.91
291 | N3F | 2.05
292 | N3I | 1.84
293 | N3L | 1.42
294 | N3S | 3.29
295 | N3Q | 2.1
296 | N3E | 2.12
297 | N3P | 1.85
298 | N3W | 1.65
299 | N3V | 3.37
300 | F1N | 2.32
301 | F1L | 1.44
302 | F1K | 2.11
303 | F1M | 1.52
304 | F1G | 2.32
305 | F1I | 2.08
306 | F1Q | 2.11
307 | F1R | 2.01
308 | F1Y | 1.52
309 | F1P | 2.99
310 | F1H | 2.66
311 | F1C | 2.65

Row | Variant | protein stability index
312 | F1S | 2
313 | F1A | 2.86
314 | F1V | 2.86
315 | F1D | 2.59
316 | F1W | 2.25
317 | F1T | 2.14
318 | F1E | 3.02
319 | F4N | 2.29
320 | F4D | 2.27
321 | F4K | 1.46
322 | F4I | 1.51
323 | F4E | 2.39
324 | F4H | 2.47
325 | F4T | 2.3
326 | F4C | 2.36
327 | F4S | 2.12
328 | F4P | 1.93
329 | F4A | 1.61
330 | F4M | 2.26
331 | F4G | 2.23
332 | F4L | 1.94
333 | F4Q | 2.41
334 | F4R | 2.33
